Measurements as given in the supplement of paper PMC10567573.
± gives the standard deviation.

Assay: protein stability index of a GFP-peptide fusion (GPS, HEK-293T) (PSI 1-6); higher = more stable
Conditions: c terminus: a fixed tail appended
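Further: 24-mer peptide tiles fused after GFP, lentivirally expressed, FACS-sorted into six equal bins by GFP/DsRed ratio, decoded by Illumina sequencing, PSI is the read-weighted mean bin number.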

Sequence	protein stability index (treatment: DMSO)	protein stability index (treatment: MLN4924 1 uM, 8 h)
PETQARLEALLEAAGIGKLSTADG [ANKRD17]	2.95 ± 0.32	3.18 ± 0.42
HDIVRFLVQLDDYRFASAGDDGIV [WDR41]	2.21 ± 0.061	2.2 ± 0.25
LNDIFHLLKSHTNVLSVNLPDNFT [TPH1]	2.35 ± 0.32	2.05 ± 0.41
LDTVELATYCVRTFALYKNGSSEK [PTPRD]	2.37 ± 0.042	2.55 ± 0.35
WIPQAGPPELNYGATGECQNFLDP [ZNF449]	4.29 ± 0.18	4.28 ± 0.27
QTVPKRIPERLSIFCRDTQTVFQK [IQUB]	2.56 ± 0.43	2.24 ± 0.31
PAFDALGQLTGGYKPNPQIYVKLI [OAS1]	2.34 ± 0.14	2.15 ± 0.26
MAPLLFNGCRSGEIFAIDLRCGNQ [DCAF4]	2.52 ± 0.29	2.3 ± 0.56
QPELPCAMAMGTPSTTERISTSGQ [PXN]	4.72 ± 0.12	4.9 ± 0.17
FLVSAVAHEYIFCFVLGFFYPVML [SOAT2]	3.25 ± 0.35	3.3 ± 0.44
PQKLLGCSPALKRSHSDSLDHDIF [CDC25A]	3.12 ± 0.28	3.24 ± 0.33
YDASAIDFSRCDMDGATLCNCALE [ELF3]	3.99 ± 0.32	4.02 ± 0.33
STRGAARPAQAIGTQPRATKHKCR [SPACA9]	5.13 ± 0.098	5.14 ± 0.36
LFPPKAKSNQPKSLEDLIFESLPE [ATE1]	3 ± 0.055	3.66 ± 0.59
PLAEQTPLTLQSQPKEPQLTCDSA [ZSCAN9]	5.25 ± 0.28	5.35 ± 0.36
KKNNIKLYVRRVFIMDSCDELIPE [HSP90AB1]		2.06 ± 0.65
TFDGSLFAVFPSLNEEQTLQEVPT [ETS2]	3.69 ± 0.28	3.57 ± 0.18
ADGRIEPGDMLLQVNEINFENMSN [DVL3]	3.95 ± 0.33	4.36 ± 0.32
LAVMGYDRYIAICNPLRYSVLMGH [OR10K2]	2.55 ± 0.28	2.58 ± 0.6
IIDNTNLHAWEMKPYAVMVFQTEQ [N4BP2L1]	2.15 ± 0.25	2.09 ± 0.18
SDDLERTIEERVNILFDFVKKKKE [EIF5]	3.97 ± 0.19	4.2 ± 0.32
ADQKLVIIKQIPVEQMTKEERQAA [NEK8]	4.62 ± 0.24	4.61 ± 0.23
KRDLLGALKYWKKAMNMRYSDRTN [FEM1C]	1.95 ± 0.25	2.27 ± 0.33

Sequence	protein stability index (treatment: DMSO)	protein stability index (treatment: MLN4924 1 uM, 8 h)
GKNPDVDTSFLPDRDREEEENRLR [FAM50A]	5.26 ± 0.11	5.49 ± 0.38
LEQRSESVRRTRSKIGFGILLSKE [SMAD6]	3.51 ± 0.27	3.5 ± 0.3
GRASRFLQSISWDPEDFEDAWKRP [TLE6]	3.15 ± 0.21	3.13 ± 0.31
SAGIAKLEEGDELQLAIPRENAQI [TNFSF13B]	5.08 ± 0.25	4.97 ± 0.23
LLDEEEALAKKFIDKNTQLTLQVY [TRIM14]	2.53 ± 0.42	2.72 ± 0.34
ALGCVMYTMLLGRPPFETTNLKET [PLK2]	2.72 ± 0.74	2.79 ± 1.1
VQRIMVANIEEVLQRGEALSALDS [SEC22B]	2.85 ± 0.17	3.05 ± 0.39
AMGHSQDRLTTFQENQARTHVLSK [LRRC45]	4.7 ± 0.21	4.7 ± 0.28
HFAEEERSKYDYLMILRRVVNEST [TENT5C]	2.55 ± 0.26	2.86 ± 0.37
EELSVLEVFEGREDSIFGDPKKLL [MAGEA6]	4.22 ± 0.35	4.32 ± 0.28
RRCGELKRKLGLTALVGLRQNLSK [TPD52L3]	2.41 ± 0.34	2.57 ± 0.16
IRSMDPSALASDRFNLILADTNSD [DCAF4]	4 ± 0.14	3.85 ± 0.11
RHIHHLGNQLQLNQHCLDTAFNFF [BRF1]	2.29 ± 0.23	2.3 ± 0.16
KEFQQVFIPECNDDGTYSQVQCHS [SMOC2]	4.01 ± 0.36	4.38 ± 0.29
DEPQETAYRTQVSSCCLHICQGIR [PKD2L1]	2.8 ± 0.61	3.1 ± 0.46
LGAEIRNGMAIIRPPGHHAQHSLM [HDAC6]	2.92 ± 0.096	2.99 ± 0.26
VMARTRLVVPNKGYSSLDQSPDEK [FAM219A]	4.62 ± 0.34	3.88 ± 0.42
VLDVNNQSFREQEEPSNKRVRPLA [NET1]	3.46 ± 0.2	3.99 ± 0.28
MFFKDRFYMRTNPFYPEVELNFIS [MMP1]	2.44 ± 0.73	2.71 ± 0.68
KCIFTQFRIILGDFDYNAIDNANR [PKD2L1]	2.41 ± 0.32	2.52 ± 0.36
GIAHKIEAGNEFKNIFGTPEFVAP [DAPK3]	3.44 ± 0.61	3.64 ± 0.39
WKEWGFTGVQEVLSALLRATPGEY [SPAG8]	2.06 ± 0.78	2.2 ± 0.53
